Results reported in the NTF2 design screens of Basanta et al. (2020).

Assay: protease stability score; higher = more stable; yeast display proteolysis, trypsin and chymotrypsin;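 further: log10 excess protease needed over predicted unfolded state with 0 meaning unfolded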

| Sequence | protease stability score |
| --- | --- |
| DETNERVARTMLEVRQHNNPDDLRKMLDPNVKVVIGDKEVHGREDYINKFEERVKHIRVDVKVDHIDSQGNRLDIDVTFTMNVNGQPVKDRMRFVIQITNGKIEEVDVSVPEEELKKQEK | 0.909 |
| DEEKNQDHAKELAKAIVSNNEEDIERLMDPNATMLVGDKQVHGMEEARKLIRDLKKRADHIRVTDVTVSGNKIRVSFVMNVNGQNLQFVVDAQVHNGKITSMRIQARNDDIKRRLEQ | 1.28 |
| DEEEKAEHVADEVRHALKRGDEDRLMNLMDENVRVEVGDKTIHGREEVRKELHRISKDFDHVDAKVKSIKVTNGNVIIIMDVKQNVNGRTRRFEVSMILDVKGDKARIQHIKND | 1.11 |
| DTESLKKVEDVVNNNDKKKHERLLDKDVRIVVGDKEVRGREQAARDYKRFVNHADHIEIKRVRSNGDKLFIDRVVNFNGQTVHFVVTYVVKNGSIQEVSVKVTDKEHLKLYKEALR | 0.196 |
| DERQENNARKFFTAYLKGDEHKLTELMRDDVRLKIGDKEIHGRETALKTIHTLRRRQRIHIQVDNIEVDENHVEVHAKIEWEHNGQPDSQKVRIDIKFHNGRINYLQMDLRG | 1.59 |
| DEHVSRNFENMLRAIKSGNEEEIRELIDKNVRVQVGDKEIHGREEAVKDFKRRHEEIRFNLEVKRIEVRGNKVDVDAEASMTVNGKPYEWHVNIEVRARNGRIKYLNYRVPEEQVKKVES | 0.177 |
| DERKAVKHLNTMMRLINTGNPSEAADQADKDVKVHIGDKDVHGRERASDLIKKLRDRVDTIKVKSIEERPNHLSAKIDLEHNGRTHTVVFIIHAENGKVTSMSVKTD | -0.349 |
| EEELVKKAKTFMKQEEDGNPEKLKEYADENVRMHVGNKEVRGMDQYAEDVRRKREEARFSFKSIDAKASGDKITVRATLTFNVNGKPVEIDMTIILKLHNGRLKFLKVRVDPDEERRLES | 0.595 |
| DEENLDAARRLIDALKNNDPDHAMENADKDVRVHIGDWHVHGREDMSRLIKELVDEMRVDVKDVKTRKDGETAVITIDAVFHVNGEPKRDTFTMNVKAHNGHVQRIHARVSEEDVRKLKQ | -0.086 |
| EKHVMTRITQYERNVQNGDEDTLNEMVDKDAKINIGDKTWHGMHNAAKDWKRQKDEMRLDYRSIHVTVQGDTVRIDQVVAVERNGKPSHDRNVQIWHEDNGKVKQVEQHKRP | -0.216 |
| DPTKVDHVARRVLEYMVKGNAEEVRKMVKPNAEAQTGDQKYKGQDEIHKMVKTLKDYGIEVKRDEVRVDGGHAQLKIRANIGDRTYTARWQVEAKDGKVDRIQMDISEDLKKAIKHG | -0.022 |
| DEENVKIFEEFLRAEQTNDPERAKELIDKDVRIRVGDKTYHGREEWVNTFEEQQRHLKVHYKHVDNTHRNGRVHVRMTFDAVTNGEPKEVTARVEAEFHNGKAKDIQVEYRG | -0.257 |
| DEHRLATEAIDQFERALQSGNPDEITKMADPDARVHVGDTQLRGREELQRYMHEVRQRHDQVEVHVHRISIDGNKINIHFVLNLNHNGQTDSQSYEMTARVQNGSAVVKEIIQQ | -0.296 |
| DEEQLKKVVEKLLQAIQNGNLDEIKKMLKDDVTFVLGDKTFRGVEQAVKIVKQLVDKGAEFHVERLEVKGDQAHVKTYWHAGDKTMELTVTYNVRDDKVEKVQADWSEEVKKARKHD | 0.985 |
| DHETQNDLATEIVRVYKHGNPDDWSKLVDPNARVVYGDKEIHGREDAMSFMKKLRNQADSIKVKDYKVKNGRVDVVVIIVVNGRHATLQFTIQFHNGKATDVKFDPKQWHELQK | 1.28 |
| DEKESADRMIQRLQELMDQNNEEEIKNEVDENARAVVGDKEYHGDEQFAKALITVVKQYDHISIQIRSFTHTNGKNVATFEATFHHNGKNDTVKIEVVFDEVNGRHNLVRLVMK | 1.22 |
| DNEAARSARRNLKQIERGNEHKVREMADKNAHVRVGDKDLHGREDISTWVKKLKEEMRVRFDLRRVNDKGSTVDLDVTLEMTVNGKPVTMKVTAKLSIHNGKIQSLIWNISDEQKEQRKG | 0.336 |
| DDDENKNVLKRVVDILRTGDDKKMQKLADPNARLIVGDKTYHGREDMMHWVKELKQDVDHMKVEQIEVRGERARAILVAEVNGQQRRYLLIITVHNGRLKQMEVRSQ | 1.91 |
| DEEHAHEMLKVVKVLIEGDPDQAHDMVDPNARFKVGDQTFSGRESFRNHVRHTNEESSLHLKSLDAQDHGDKVTIKVEFVRDTNGNPRHMRLEVRARLHNGRVTHAEFEDRK | -0.001 |
| DDRHLQQLASIAAKALRTGNPKDMKKLVDPNAKMHYGDKEVHGREQMADVLRRIRRDADHIDLRSYSADNGRISIDMDLRVNGKKVRIIVKAEVHNGKVTHVTVDTK | 0.766 |
| DEHRVQTHAEEFMKLLQRGDEKSLADLMDPNASVKIGDKVYHGREQIRHAMRELRERVDHIHVKDIQAQGNHINVDFVLNVNGKHQKYELHVDFSNGRVKSLSMQTS | 1.69 |
| DEEELSEVANNMERILREGDPDKARSLADENAKAHIGDKKYHGREQIREMIHRMRTRADKVTVNELRITNGVIKIVAEFNVNGRNIEIVVHIRVNNGKISEVNFEVRDPDQYKEIYS | 0.386 |
| DESMQKEVHDFLKAQMTNNEDQLRRQADPNARFVYGNKTLHGMDQAAKHLVKLYREATFRIESVSIDAQGDKADIKQTFIVDINGKPDRDTADIKIKFHNGTIKEVNIQVDEEKERKIRS | -0.218 |
| DKEDWTRLTNVLEDNNEHQFQDMLDKDVKIDVGDKRIHGRERAKHFLRKYEREVDEITVYSINVSGDNVKVDRVAKHNGQSVRFVMVFRAHNGKVQEMRIEFRDERQKEIWNQLEQ | 0.231 |
| DSKVRRVAERFMHAIQEGNEDDVRKLADKNVQIHVGEKELRGRDQLAKDVSDRTRQIRLHIKHLSIHVQGDKVIVRFDVVETHNGKPHRYRAKAEMRVRNGRVTRYTVKHDG | 0.633 |

| Sequence | protease stability score |
| --- | --- |
| DEEEAQKFRKHAKSNDQDNMRRMMDEDVRVIVGDFEVQGREDAEENLLRLNQRVDHISVKSIDVQGEHVTVDVEMTIDGTKFVVVYVVQFHNGRIKQLDLRARDEKDEKAFRRAVG | 0.234 |
| DDDRKARDFWRKFKEVLDKGDSEENDKLVDENAKFEYGDKTLHGREDAMRWNKHLTTRVDHLRMEVEDFKVHNGKIDVQVRLDVNVNGQQRQHDVKLVAEIDGDKVKLHSLTVK | 0.009 |
| DEDRMRELMKVMMDAVRNGNQEQAYKVMDEGGEFHVGDKTVRGPEQVKEYVKEVQDWGNHVEYKETHYEGDTATVKTQAHLGDVTVDFEVHYVVKGNKLKRFEVRFNKEQIKEFKKS | 0.593 |
| DEEAETVLKRWLTALRENDPQQAADLADPHAQFQIGEKTIRGREDLKRFMDEMLHHLRVDFTIDHVKVTGETVVVHFTVEFNVNGRPLRFEVVLVVKAENGKVKQLEQHMDDDQWRQVKS | 0.358 |
| DDEEKKELADEIAQVIRTGDPKRMVEMVDENATAQVGDQKVHGRENIDKMMQNIRRTADHIRIEHVQVHGEEIRIKAKFHINGHTTTWVFSAEVHNGRIQRASLDRR | 1 |
| DREMLKDVKRLLEVINKGNEDEMRKMVDPNAKFVIGDKEITGREEFAKQMKRHKDEIRIDIKVKHLTAKGNRATVRATATRDHNGQPQSFKVTMRVTFSNGKVKKVHYDYTK | 0.065 |
| DDEAKDIVEEVVREGDFRQHMRLADEDAKLEYGDKRLHGRERVSDMAQKINERVDHLEVESVSVRGEEVIITLVLNVDGQKFRMKLVMDVQGDKIKSVKLEARTEDNKKLMDRAFS | 0.012 |
| EENEVEKIMQVAHSGDFDSLVELADPNVTIKVGDKEWHGREHATEFFEKMKRHIDHVDVKSMSAQGDKITVRAHFNVNGDTLDFNLHIVISNGRIQSVKIQVTSHELRKTLTDQLG | 1.44 |
| DEQRIADNLDERFRRVMENNNEDELRKLFDKDARVRVGDKTLHGREEVDKRLREILQRADHIDIKVNDIHVRGDKINIHFKIRIVVDGRDRFYTAVVRADVHNGEAKIVELKQS | 0.213 |
| DEQDQLKLAERVLKAVNDNNPQKFEELADENATVKVGDKTWHGRSHAQEMIKRFKERVDSLEIKHIDNRGNRARVHLVLEHNGRTTEMSIVVTVENGRAKAVVVHTK | -0.133 |
| DDDARRVINDALEAMNSNNESQLAHLFDPNATFEVGDREIHGRDDFREWVRQMQEEMRFSVSVRDVQERPNHVKFDVEYEEEKNGNPDKHRAVLKARARNGKITELKLDNHK | 0.075 |
| DEELAKKVLEKWVKVVDKGDDQAVKKLYKPNGTWINGDEETQGAEKVVKMMQKAQKKGDQFQVRKAKVEGNHVEFHYDLRIGDQTATFTVKVQVQGGRVEEVKVEVDKKAKEIITKG | 0.06 |
| DEDARKLAEELLKAQETGDPKTLKRLVDPNVKVDVGDKTFHGMDEINEEVTRTKRRQRVKIDRVSIHVRGDSVVIHVTEKNEKDGQPSSRQYVQEMRVTNGHVVEMKQNKSR | -0.468 |
| DDEDAKHLMQVLQNGDEDRFAELVDENAHQTIGDKTIHGRSEFDRIHEKLKKRIDNFRVNDYRIDNGSVNADVSANVNGQKIRFKYQAHVTNGHIKEMRFQATDPRQEDKWHEMQK | -0.031 |
| DEESRRKQAQEFNENLEQGNFEELMKLLDPNAHIIIGEKEVKGREDIRKQQEEDQRRIDHVQIQSVTAHGDKIRALIRFTVNGQQTEVHVVLSFHNGRVKEMKIHTK | -0.324 |
| DQREIVTKILRDFVKAFKTGDQDKYEKLVDKDVEYNIGDKTYHGREEAKKLFRELVKQVDHYSVHYKSISVRNGRAKVEAIQYYKHDGRTYHNKVSYTFRIQGDKIRMQDATFS | 0.602 |
| DEDNEKELQREIVRVLKHNDWERFTQLIDEDVRLEYGDQRYHGREQVSKHFTDLAQEVDSVEVTSVKAHNGKINITAILNHNGTNHRYNIRFEFRNGRLKVVRYDHT | 1.85 |
| DEDAKRVANEISKAFDQNDPDKARQLADENAEVQIGDKVLHGRDQATNQLERQREEQNEHVDSVEIDVDGDKLKVRIHFNSHSNGRPRRNTRTYTIVVRNGHLQHLDMKENG | -0.246 |
| DEDAQKRAEEMMHALQNGDEKQIQTLFDKDAKVNVGDKEYHGKEQLAHDLKRRHDKIRVDYKDVHIRAHGDKVSLTFRVRVKINGVPADNSFQFTLKFRNGHVQSMSQQFDPKYEQDQRN | -0.033 |
| DEETQFKKLMETMKEQNKRGDPRKHEEYVDPNAKVRVGDQDLHGREDVRRVLQEWAERADHVDLKVESMSVHNGKQTAIMVIVLRYNGRNETRRVQVVFDKSNGTVRLVNLRNS | 0.856 |
| DEEEAKRQMEEFAHGDPDKMVNNVDENADAVVGDRRFHGRKDIKEWAERMKKRIDTNKYEHVEQQGDKVDAIYNITVNGQELRFKLVIKIDNGRVEYVKVDVTDEENLKILQEIFS | 0.121 |
| DEENLKKVREFLEHLVTGNEREVKHLMDPNAEMEVGDKKYSGTEQLRRLMQELKRHQTNKYDIKDMKVQGNKADLKAKVIERHNGQPDDTEQQFFATMSNGRFKKVSFRTDK | -0.295 |
| DDENMSAFERWLHAVETGNPQKVKEQMDENAKLDVGEKDVTGMDEIRRQLEKEMKRMRVTIQRYDLQVHNGQVVVRQTVVNKNDGQPRRRTNVVHVDIRNGRIQRIIQRDDG | 0.42 |
| DEEDKKRLDTFDDNEDRGDRTKVRELADPNAKYEYGDNTVHGREDLEKMVHHLKNQLRIRVKSVEKRMHNGTLRASQREQQDHNGRPDDNSFDQDVHIHNGRIKQNVVEERK | -0.15 |
| DEESLAKEFIKHVNDNADTGNPDDMAELFDPNARIEVGDKKYDGHKDITKLNEELNREADHIKYTINSVKRDGDFVRLDIEVRMDVNGKDVNHRYRANVAVTNGRLVVRSLTSS | 0.891 |
